# B1: Ribose import binding protein RbsB wild type, P02925 (protein)
# chain: MNMKKLATLVSAVALSATVSANAMAKDTIALVVSTLNNPFFVSLKDGAQKEADKLGYNLVVLDSQNNPAKELANVQDLTVRGTKILLINPTDSDAVGNAVKMANQANIPVITLDRQATKGEVVSHIASDNVLGGKIAGDYIAKKAGEGAKVIELQGIAGTSAARERGEGFQQAVAAHKFNVLASQPADFDRIKGLNVMQNLLTAHPDVQAVFAQNDEMALGALRALQTAGKSDVMVVGFDGTPDGEKAVNDGKLAATIAQLPDQIGAKGVETADKVLKGEKVQAKYPVDLKLVVKQ
# Details: Escherichia coli (strain K12), pH 7.6, Thermal, MOPS 25 mM, Potassium chloride 100 mM, whole UniProt chain shown
protein,measurement,setting,value
B1,Tm,Activity,62.6 °C
same,Tm,Quantitative cysteine reactivity,62.6 °C

# Source: FireProtDB (doi:10.1073/pnas.0910421107)
